Numbered stars: 1 amine (or outer) side, 2 acyl side, 3 side chain; on linkers, the order of the positions; unused ones are H or OH. Square brackets hold non-standard residues; d marks the D form. Ends that are not written are not given here. * marks the point of attachment. O(CA) = ornithine chloroamidine, N=C(CCl)NCCC[C@H](N[*:1])C(=O)[*:2]; Orn(fluoroacetimidoyl) = N=C(CF)NCCC[C@H](N)C(=O)O; 2Naphthylsulfonyl = O=S(=O)(c1ccc2ccccc2c1)*; AEEA = NCCOCCOCC(=O)O
How the values were obtained:
Experiment in all cases: cell-based or functional assay
recombinant human PAD2 [1] = target: T1, recombinant human PAD2 (human, UniProt Q9Y2J8 1-665)
T1 sequence (Q9Y2J8 whole entry): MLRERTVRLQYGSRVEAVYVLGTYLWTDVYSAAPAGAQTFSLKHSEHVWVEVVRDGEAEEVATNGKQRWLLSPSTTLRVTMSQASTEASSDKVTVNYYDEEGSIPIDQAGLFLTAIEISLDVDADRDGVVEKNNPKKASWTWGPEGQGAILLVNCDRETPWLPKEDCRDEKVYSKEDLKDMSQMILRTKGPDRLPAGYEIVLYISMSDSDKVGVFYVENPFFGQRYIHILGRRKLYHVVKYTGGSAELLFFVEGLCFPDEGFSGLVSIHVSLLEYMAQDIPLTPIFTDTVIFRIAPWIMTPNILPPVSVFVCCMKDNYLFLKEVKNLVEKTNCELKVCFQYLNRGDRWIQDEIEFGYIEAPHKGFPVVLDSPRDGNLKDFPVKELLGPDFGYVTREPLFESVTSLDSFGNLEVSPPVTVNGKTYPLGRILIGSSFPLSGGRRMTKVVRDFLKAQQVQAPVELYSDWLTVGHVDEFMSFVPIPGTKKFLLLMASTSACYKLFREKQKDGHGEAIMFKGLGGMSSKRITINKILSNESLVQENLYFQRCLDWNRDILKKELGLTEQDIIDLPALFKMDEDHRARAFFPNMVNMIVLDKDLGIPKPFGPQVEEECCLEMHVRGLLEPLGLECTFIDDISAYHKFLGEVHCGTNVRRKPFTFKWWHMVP

recombinant human PAD4 [2] = target: T2, recombinant human PAD4 (human, UniProt Q9UM07 1-663)
T2 sequence (Q9UM07 whole entry): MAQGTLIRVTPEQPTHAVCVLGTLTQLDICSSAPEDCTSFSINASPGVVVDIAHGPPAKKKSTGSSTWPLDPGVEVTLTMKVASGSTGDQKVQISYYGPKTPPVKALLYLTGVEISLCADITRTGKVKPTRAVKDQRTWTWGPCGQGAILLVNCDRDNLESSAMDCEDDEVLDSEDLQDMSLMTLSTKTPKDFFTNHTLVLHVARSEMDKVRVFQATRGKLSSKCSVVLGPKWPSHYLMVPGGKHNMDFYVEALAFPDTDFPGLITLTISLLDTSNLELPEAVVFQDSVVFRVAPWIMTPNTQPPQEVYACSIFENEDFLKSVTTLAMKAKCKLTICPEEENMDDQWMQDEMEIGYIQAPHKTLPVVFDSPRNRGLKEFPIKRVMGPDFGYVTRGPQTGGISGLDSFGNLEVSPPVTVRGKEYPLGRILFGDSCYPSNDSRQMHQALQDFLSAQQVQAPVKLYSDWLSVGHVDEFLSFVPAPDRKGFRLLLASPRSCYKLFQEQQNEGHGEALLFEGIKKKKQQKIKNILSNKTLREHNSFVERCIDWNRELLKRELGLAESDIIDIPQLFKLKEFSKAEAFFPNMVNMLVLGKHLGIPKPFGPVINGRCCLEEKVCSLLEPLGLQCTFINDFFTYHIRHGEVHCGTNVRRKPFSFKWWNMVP

recombinant human PAD2 [3] = target: T1, recombinant human PAD2; remark: listed apart in the source
recombinant human PAD4 [4] = target: T2, recombinant human PAD4; remark: listed apart in the source
recombinant human PAD2 [5] = target: T1, recombinant human PAD2; remark: listed apart in the source
recombinant human PAD4 [6] = target: T2, recombinant human PAD4; remark: listed apart in the source
recombinant human PAD2 [7] = target: T1, recombinant human PAD2; remark: listed apart in the source
recombinant human PAD4 [8] = target: T2, recombinant human PAD4; remark: listed apart in the source

With GD[Orn(fluoroacetimidoyl)]SG [G-D-O(FA)-S-G] the “IC50 values (µM), ABAP PAD activity assay” value (recombinant human PAD2 [1]) was 17 µM and the “IC50 values (µM), ABAP PAD activity assay” value (recombinant human PAD4 [2]) was 178 µM.

For 2Naphthylsulfonyl-KFD[Orn(fluoroacetimidoyl)]DFI-NH2 [0837-29FA], the “Inhibition of PAD2: value at 10 µM inhibitor (0 µM: 74)” value (recombinant human PAD2 [3]) was 16%, the “Inhibition of PAD2: value at 20 µM inhibitor (0 µM: 74)” value (recombinant human PAD2 [3]) was 9% and the “Inhibition of PAD2: value at 40 µM inhibitor (0 µM: 74)” value (recombinant human PAD2 [3]) was 5%. The “Inhibition of PAD2: value at 80 µM inhibitor (0 µM: 74)” value (recombinant human PAD2 [3]) was 2%, the “Inhibition of PAD4: value at 10 µM inhibitor (0 µM: 71)” value (recombinant human PAD4 [4]) was 33% and the “Inhibition of PAD4: value at 20 µM inhibitor (0 µM: 71)” value (recombinant human PAD4 [4]) was 16%. For the same binder, the “Inhibition of PAD4: value at 40 µM inhibitor (0 µM: 71)” value (recombinant human PAD4 [4]) was 10% and the “Inhibition of PAD4: value at 80 µM inhibitor (0 µM: 71)” value (recombinant human PAD4 [4]) was 5%.

B1: 0748-17FA (peptide)
peptide: Ac-KLH[Orn(fluoroacetimidoyl)]EWM-NH2
SMILES: CSCC[C@H](NC(=O)[C@H](Cc1c[nH]c2ccccc12)NC(=O)[C@H](CCC(=O)O)NC(=O)[C@H](CCCNC(=N)CF)NC(=O)[C@H](Cc1c[nH]cn1)NC(=O)[C@H](CC(C)C)NC(=O)[C@H](CCCCN)NC(C)=O)C(N)=O
With B1 the “conversion of 0708-30 by PAD2, 10 µM inhibitor (0 µM: 68)” value (recombinant human PAD2 [5]) was 58%, the “conversion of 0708-30 by PAD2, 50 µM inhibitor (0 µM: 68)” value (recombinant human PAD2 [5]) was 35% and the “conversion of 0708-30 by PAD2, 100 µM inhibitor (0 µM: 68)” value (recombinant human PAD2 [5]) was 24%. The “conversion of 0708-30 by PAD4, 10 µM inhibitor (0 µM: 81)” value (recombinant human PAD4 [6]) was 64%, the “conversion of 0708-30 by PAD4, 50 µM inhibitor (0 µM: 81)” value (recombinant human PAD4 [6]) was 32% and the “conversion of 0708-30 by PAD4, 100 µM inhibitor (0 µM: 81)” value (recombinant human PAD4 [6]) was 18%.

B2: 0837-13FA (peptide)
peptide: Ac-KFD[Orn(fluoroacetimidoyl)]DFI[AEEA]-NH2
SMILES: CC[C@H](C)[C@H](NC(=O)[C@H](Cc1ccccc1)NC(=O)[C@H](CC(=O)O)NC(=O)[C@H](CCCNC(=N)CF)NC(=O)[C@H](CC(=O)O)NC(=O)[C@H](Cc1ccccc1)NC(=O)[C@H](CCCCN)NC(C)=O)C(=O)NCCOCCOCC(N)=O
In the case of B2, the “Inhibition of PAD2: value at 10 µM inhibitor (0 µM: 74)” value (recombinant human PAD2 [3]) is reported as 43%, the “Inhibition of PAD2: value at 20 µM inhibitor (0 µM: 74)” value (recombinant human PAD2 [3]) is reported as 30% and the “Inhibition of PAD2: value at 40 µM inhibitor (0 µM: 74)” value (recombinant human PAD2 [3]) is reported as 20%. The “Inhibition of PAD2: value at 80 µM inhibitor (0 µM: 74)” value (recombinant human PAD2 [3]) was 11%, the “Inhibition of PAD4: value at 10 µM inhibitor (0 µM: 71)” value (recombinant human PAD4 [4]) was 48% and the “Inhibition of PAD4: value at 20 µM inhibitor (0 µM: 71)” value (recombinant human PAD4 [4]) was 33%. For the same binder, the “Inhibition of PAD4: value at 40 µM inhibitor (0 µM: 71)” value (recombinant human PAD4 [4]) was 23% and the “Inhibition of PAD4: value at 80 µM inhibitor (0 µM: 71)” value (recombinant human PAD4 [4]) was 16%.

With GS[Orn(fluoroacetimidoyl)]DG [G-S-O(FA)-D-G] the “IC50 values (µM), ABAP PAD activity assay” value (recombinant human PAD2 [1]) was 18 µM and the “IC50 values (µM), ABAP PAD activity assay” value (recombinant human PAD4 [2]) was 443 µM.

B3: 0837-30FA (peptide)
peptide: 2Naphthylsulfonyl-KWH[Orn(fluoroacetimidoyl)]DFF-NH2
SMILES: N=C(CF)NCCC[C@H](NC(=O)[C@H](Cc1c[nH]cn1)NC(=O)[C@H](Cc1c[nH]c2ccccc12)NC(=O)[C@H](CCCCN)NS(=O)(=O)c1ccc2ccccc2c1)C(=O)N[C@@H](CC(=O)O)C(=O)N[C@@H](Cc1ccccc1)C(=O)N[C@@H](Cc1ccccc1)C(N)=O
For B3, the “Inhibition of PAD2: value at 10 µM inhibitor (0 µM: 76)” value (recombinant human PAD2 [3]) was 9%, the “Inhibition of PAD2: value at 20 µM inhibitor (0 µM: 76)” value (recombinant human PAD2 [3]) was 3% and the “Inhibition of PAD2: value at 40 µM inhibitor (0 µM: 76)” value (recombinant human PAD2 [3]) was 2%. The “Inhibition of PAD2: value at 80 µM inhibitor (0 µM: 76)” value (recombinant human PAD2 [3]) was 1%, the “Inhibition of PAD4: value at 10 µM inhibitor (0 µM: 67)” value (recombinant human PAD4 [4]) was 37% and the “Inhibition of PAD4: value at 20 µM inhibitor (0 µM: 67)” value (recombinant human PAD4 [4]) was 24%. For the same binder, the “Inhibition of PAD4: value at 40 µM inhibitor (0 µM: 67)” value (recombinant human PAD4 [4]) was 13% and the “Inhibition of PAD4: value at 80 µM inhibitor (0 µM: 67)” value (recombinant human PAD4 [4]) was 7%.

B4: 0837-28FA (peptide)
peptide: 2Naphthylsulfonyl-KWH[Orn(fluoroacetimidoyl)]DFF[AEEA]-NH2
SMILES: N=C(CF)NCCC[C@H](NC(=O)[C@H](Cc1c[nH]cn1)NC(=O)[C@H](Cc1c[nH]c2ccccc12)NC(=O)[C@H](CCCCN)NS(=O)(=O)c1ccc2ccccc2c1)C(=O)N[C@@H](CC(=O)O)C(=O)N[C@@H](Cc1ccccc1)C(=O)N[C@@H](Cc1ccccc1)C(=O)NCCOCCOCC(N)=O
With B4 the “Inhibition of PAD2: value at 10 µM inhibitor (0 µM: 76)” value (recombinant human PAD2 [3]) was 17%, the “Inhibition of PAD2: value at 20 µM inhibitor (0 µM: 76)” value (recombinant human PAD2 [3]) was 8% and the “Inhibition of PAD2: value at 40 µM inhibitor (0 µM: 76)” value (recombinant human PAD2 [3]) was 4%. The “Inhibition of PAD2: value at 80 µM inhibitor (0 µM: 76)” value (recombinant human PAD2 [3]) was 2%, the “Inhibition of PAD4: value at 10 µM inhibitor (0 µM: 67)” value (recombinant human PAD4 [4]) was 37% and the “Inhibition of PAD4: value at 20 µM inhibitor (0 µM: 67)” value (recombinant human PAD4 [4]) was 23%. For the same binder, the “Inhibition of PAD4: value at 40 µM inhibitor (0 µM: 67)” value (recombinant human PAD4 [4]) was 17% and the “Inhibition of PAD4: value at 80 µM inhibitor (0 µM: 67)” value (recombinant human PAD4 [4]) was 9%.

With YD[O(CA)]GS [Y-D-O(CA)-G-S] the “IC50 values (µM), ABAP PAD activity assay, second round” value (recombinant human PAD2 [7]) was 58 µM and the “IC50 values (µM), ABAP PAD activity assay, second round” value (recombinant human PAD4 [8]) was 44 µM.

B5: 0748-01FA (peptide)
peptide: Ac-HFD[Orn(fluoroacetimidoyl)]EWI-NH2
SMILES: CC[C@H](C)[C@H](NC(=O)[C@H](Cc1c[nH]c2ccccc12)NC(=O)[C@H](CCC(=O)O)NC(=O)[C@H](CCCNC(=N)CF)NC(=O)[C@H](CC(=O)O)NC(=O)[C@H](Cc1ccccc1)NC(=O)[C@H](Cc1c[nH]cn1)NC(C)=O)C(N)=O
For B5, the “conversion of 0708-30 by PAD2, 10 µM inhibitor (0 µM: 68)” value (recombinant human PAD2 [5]) was 67%, the “conversion of 0708-30 by PAD2, 50 µM inhibitor (0 µM: 68)” value (recombinant human PAD2 [5]) was 36% and the “conversion of 0708-30 by PAD2, 100 µM inhibitor (0 µM: 68)” value (recombinant human PAD2 [5]) was 21%. The “conversion of 0708-30 by PAD4, 10 µM inhibitor (0 µM: 81)” value (recombinant human PAD4 [6]) was 50%, the “conversion of 0708-30 by PAD4, 50 µM inhibitor (0 µM: 81)” value (recombinant human PAD4 [6]) was 25% and the “conversion of 0708-30 by PAD4, 100 µM inhibitor (0 µM: 81)” value (recombinant human PAD4 [6]) was 12%.

Source: patent US20110142868A1 (CHIRALIX B V, published 2011)
